Reference: PMC10834949

What was measured:
Aβ42 fibrils [1] = assay: NMR titration; solution 1H-15N HSQC of 74 uM 15N-labelled BRICHOS before and after adding sonicated unlabelled Aβ42 fibrils at 1:1 (related to monomeric Aβ42); 20 mM sodium phosphate, 0.2 mM EDTA, pH 7.4, 25 °C; loss of signal intensity taken as the bound population
Aβ42 fibrils [2] = assay: SPR; sonicated Aβ42 fibrils immobilised by amine coupling on a C1 chip (BIAcore 3000); R221E Bri2 BRICHOS injected at 0.195-50 uM in HBS-E (10 mM HEPES, 150 mM NaCl, 0.2 mM EDTA, pH 7.5), 30 uL/min; two-phase association and two-phase dissociation model, global fit; apparent constants
Aβ42 fibrils [3] = assay: co-sedimentation; sample of co-incubated BRICHOS-Aβ42 fibrils centrifuged; BRICHOS in the supernatant measured by SDS-PAGE

percent of HSQC signal intensity left after adding fibrils at 1:1 (Aβ42 fibrils [1]): 90% | percent of total BRICHOS bound (Aβ42 fibrils [1]): 5 to 10% | relative signal attenuation (population of bound BRICHOS) (Aβ42 fibrils [1]): 10% | KD app of the strong phase (two-phase model) (Aβ42 fibrils [2]): 12.9 nM | percent of BRICHOS in the soluble fraction (Aβ42 fibrils [3]): 95% | percent of total BRICHOS bound (Aβ42 fibrils [3]): 5 to 10%
Substance: recombinant human Bri2 BRICHOS R221E monomer (domain or fragment)
